Results from patent US7964369.

Target: bacterial recombinant GST-GRAIL fusion protein, Q9D304
Sequence (Q9D304 whole entry, looked up, the tested form may be a part): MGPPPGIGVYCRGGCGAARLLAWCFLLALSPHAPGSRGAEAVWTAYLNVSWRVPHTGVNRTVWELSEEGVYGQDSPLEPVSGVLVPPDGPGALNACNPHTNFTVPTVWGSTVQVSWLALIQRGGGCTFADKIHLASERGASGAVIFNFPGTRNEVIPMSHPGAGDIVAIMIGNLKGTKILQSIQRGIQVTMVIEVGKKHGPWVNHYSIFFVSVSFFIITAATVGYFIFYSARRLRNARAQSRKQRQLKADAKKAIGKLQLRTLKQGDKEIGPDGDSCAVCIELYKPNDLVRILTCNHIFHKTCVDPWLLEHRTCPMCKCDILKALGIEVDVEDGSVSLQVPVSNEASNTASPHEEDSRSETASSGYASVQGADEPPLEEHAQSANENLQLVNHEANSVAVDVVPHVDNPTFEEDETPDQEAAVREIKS

B1: USP8 expressed in E. coli (pET28) (protein)
chain: MPAVASVPKELYLSSSLKDLNKKTEVKPEKTSTKNYIHSAQKIFKTAEECRLDRDEERAYVLYMKYVAVYNLIKKRPDFKQQQDYYLSILGPANIKKAIEEAERLSESLKLRYEEAEVRKQLEEKDRREEEQLQQQKRQEMGREDSGAAAKRSVENLLDSKTKTQRINGEKSEGAAAAERGAITAKELYTMMMDKNTSLIIMDARKIQDYQHSCILDSLSVPEEAISPGVTASWIEANLSDDSKDTWKKRGSVDYVVLLDWFSSAKDLLLGTTLRSLKDALFKWESKTVLRHEPLVLEGGYENWLLCYPQFTTNAKVTPPPRSRAEEVSVSLDFTYPSLEEPVPSKLPTQMPPPPIETNEKALLVTDQDEKLRLSTQPALAGPGAAPRAEASPIIQPAPATKSVPQVDRTKKPSVKLPEDHRIKSENTDQSGRVLSDRSTKPVFPSPTTMLTDEEKARIHQETALLMEKNKQEKELWDKQQKEQKEKLRREEQERKAGKTQDADERDSTENQHKAKDGQEKKDSKQTKTEDRELSADGAQEATGTQRQSKSEHEASDAKVPVEGKRCPTSEAQKRPADVSPASVSGELNAGKAQREPLTRARSEEMGRIVPGLPLGWAKFLDPITGTFRYYHSPTNTVHMYPPEMAPSSAPPSTPPTHKVKPQVPAERDREPSKLKRSYSSPDITQALQEEEKRRPAVTPMVNRENKPPCYPKAEISRLSASQIRNLNPVFGGSGPALTGLRNLGNTCYMNSILQCLCNAPHLADYFNRNCYQDDINRSNLLGHKGEVAEEFGIIMKALWTGQYRYISPKDFKVTIGKINDQFAGSSQQDSQELLLFLMDGLHEDLNKADNRKRHKEENNEHLDDLQAAEHAWQKHKQLNESIIVALFQGQFKSTVQCLTCRRRSRTFEAFMYLSLPLASTSKCTLQDCLRLFSKEEKLTDNNRFYCSHCRARRDSLKKIEIWKLPPVLLVHLKRFSYDGRWKQKLQTSVDFPLENLDLSQYVIGPKNSLKKYNLFSVSNHYGGLDGGHYTAYCKNAARQRWFKFDDHEVSDISVSSVRSSAAYILFYTSLGPRITDVAT
de-ubiquitination of auto-ubiquitinated GST-GRAIL in vitro: USP8 is capable of de-ubiquitinating GRAIL in vitro
